{"source": "IntAct's records for PubMed 12642614", "parents": {"B1": {"name": "Myosin-2 (Saccharomyces cerevisiae), P19524 (parent)", "chain": "MSFEVGTRCWYPHKELGWIGAEVIKNEFNDGKYHLELQLEDDEIVSVDTKDLNNDKDQSLPLLRNPPILEATEDLTSLSYLNEPAVLHAIKQRYSQLNIYTYSGIVLIATNPFDRVDQLYTQDMIQAYAGKRRGELEPHLFAIAEEAYRLMKNDKQNQTIVVSGESGAGKTVSAKYIMRYFASVEEENSATVQHQVEMSETEQKILATNPIMEAFGNAKTTRNDNSSRFGKYLEILFDKDTSIIGARIRTYLLERSRLVYQPPIERNYHIFYQLMAGLPAQTKEELHLTDASDYFYMNQGGDTKINGIDDAKEYKITVDALTLVGITKETQHQIFKILAALLHIGNIEIKKTRNDASLSADEPNLKLACELLGIDAYNFAKWVTKKQIITRSEKIVSNLNYSQALVAKDSVAKFIYSALFDWLVENINTVLCNPAVNDQISSFIGVLDIYGFEHFEKNSFEQFCINYANEKLQQEFNQHVFKLEQEEYVKEEIEWSFIEFNDNQPCIDLIENKLGILSLLDEESRLPAGSDESWTQKLYQTLDKSPTNKVFSKPRFGQTKFIVSHYALDVAYDVEGFIEKNRDTVSDGHLEVLKASTNETLINILEGLEKAAKKLEEAKKLELEQAGSKKPGPIRTVNRKPTLGSMFKQSLIELMNTINSTNVHYIRCIKPNADKEAWQFDNLMVLSQLRACGVLETIRISCAGFPSRWTFEEFVLRYYILIPHEQWDLIFKKKETTEEDIISVVKMILDATVKDKSKYQIGNTKIFFKAGMLAYLEKLRSNKMHNSIVMIQKKIRAKYYRKQYLQISQAIKYLQNNIKGFIIRQRVNDEMKVNCATLLQAAYRGHSIRANVFSVLRTITNLQKKIRKELKQRQLKQEHEYNAAVTIQSKVRTFEPRSRFLRTKKDTVVVQSLIRRRAAQRKLKQLKADAKSVNHLKEVSYKLENKVIELTQNLASKVKENKEMTERIKELQVQVEESAKLQETLENMKKEHLIDIDNQKSKDMELQKTIENNLQSTEQTLKDAQLELEDMVKQHDELKEESKKQLEELEQTKKTLVEYQTLNGDLQNEVKSLKEEIARLQTAMSLGTVTTSVLPQTPLKDVMGGGASNFNNMMLENSDLSPNDLNLKSRSTPSSGNNHIDSLSVDRENGVNATQINEELYRLLEDTEILNQEITEGLLKGFEVPDAGVAIQLSKRDVVYPARILIIVLSEMWRFGLTKQSESFLAQVLTTIQKVVTQLKGNDLIPSGVFWLANVRELYSFVVFALNSILTEETFKNGMTDEEYKEYVSLVTELKDDFEALSYNIYNIWLKKLQKQLQKKAINAVVISESLPGFSAGETSGFLNKIFANTEEYTMDDILTFFNSIYWCMKSFHIENEVFHAVVTTLLNYVDAICFNELIMKRNFLSWKRGLQLNYNVTRLEEWCKTHGLTDGTECLQHLIQTAKLLQVRKYTIEDIDILRGICYSLTPAQLQKLISQYQVADYESPIPQEILRYVADIVKKEAALSSSGNDSKGHEHSSSIFITPETGPFTDPFSLIKTRKFDQVEAYIPAWLSLPSTKRIVDLVAQQVVQDGH", "partner": "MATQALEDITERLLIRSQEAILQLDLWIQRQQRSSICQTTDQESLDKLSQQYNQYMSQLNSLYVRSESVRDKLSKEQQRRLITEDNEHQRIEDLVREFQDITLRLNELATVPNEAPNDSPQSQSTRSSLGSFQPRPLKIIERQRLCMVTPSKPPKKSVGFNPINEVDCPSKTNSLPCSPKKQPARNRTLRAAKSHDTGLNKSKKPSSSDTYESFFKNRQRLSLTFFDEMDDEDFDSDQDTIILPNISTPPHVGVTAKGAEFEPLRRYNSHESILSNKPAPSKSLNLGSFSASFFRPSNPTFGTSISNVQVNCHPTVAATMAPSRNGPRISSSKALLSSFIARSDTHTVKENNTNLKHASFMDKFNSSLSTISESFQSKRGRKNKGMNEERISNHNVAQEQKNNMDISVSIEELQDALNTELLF"}, "B2": {"name": "vacuole-related protein 17 (Saccharomyces cerevisiae), P25591 (parent)", "chain": "B1 partner"}}}
{"variants_of": "B1", "settings": "with vac17_yeast VAC17, P25591"}
{"variant": "G1248D", "effect of a mutation on the interaction": "disrupting interaction strength"}
{"variant": "D1297N", "effect of a mutation on the interaction": "disrupting interaction strength"}
{"variant": "L1301P", "effect of a mutation on the interaction": "disrupting interaction strength"}
{"variant": "N1304S", "effect of a mutation on the interaction": "disrupting interaction strength"}
{"variant": "N1304D", "effect of a mutation on the interaction": "disrupting interaction strength"}
{"variants_of": "B1", "settings": "with vac17_yeast VAC17, P25591", "remark": "another data set of the same source"}
{"variant": "G1248D", "effect of a mutation on the interaction": "decreasing interaction strength"}
{"variants_of": "B1", "settings": "with vac17_yeast VAC17, P25591", "remark": "another data set of the same source"}
{"variant": "G1248N", "effect of a mutation on the interaction": "decreasing interaction strength"}
{"variants_of": "B2", "settings": "with myo2_yeast MYO2, P19524"}
{"variant": "I140V", "effect of a mutation on the interaction": "with no effect"}
